Residue numbers refer to the chain shown, from its start. One block for each binder: values may come before it.
What was measured:
Settings in all cases: both partners purified
[1] = molecular target: T1, KAP1 RBCC (S33-K434), purified (human, UniProt Q13263 33-434); assay: co-IP; purified SMARCAD1 fragments (CUE1,2, CUE1) and KAP1 RBCC, 9.6μg of each in a 240μL binding reaction, 1 hour at 4°C; immunoprecipitated with anti-FLAG M2 affinity gel for 3 hours at 4°C
T1 construct: KAP1 (TRIM28), human, residues S33-K434, RBCC domain; also called KAP1 S33-K434; Fragment 1; source: E. coli BL-21 CodonPlus (DE3)-RP, purified (Ni-NTA, Mono Q)

[2] = molecular target: T2, KAP1 RBCC (S33-K434) M335A (human, UniProt Q13263 33-434, M335A); assay: as above
T2 construct: KAP1 (TRIM28), human, RBCC fragment S33-K434; source: E. coli, purified; construct generated by GenScript

[3] = molecular target: T3, KAP1 RBCC (S33-K434) E343A (human, UniProt Q13263 33-434, E343A); assay: as above
T3 construct: KAP1 (TRIM28), human, RBCC fragment S33-K434; source: E. coli, purified; construct generated by GenScript

[4] = molecular target: T4, KAP1 RBCC (S33-K434) L376A (human, UniProt Q13263 33-434, L376A); assay: as above
T4 construct: KAP1 (TRIM28), human, RBCC fragment S33-K434; source: E. coli, purified; construct generated by GenScript

[5] = molecular target: T5, KAP1 RBCC (S33-K434) I379A (human, UniProt Q13263 33-434, I379A); assay: as above
T5 construct: KAP1 (TRIM28), human, RBCC fragment S33-K434; source: E. coli, purified; construct generated by GenScript

[6] = molecular target: T6, KAP1 RBCC (S33-K434) V380A (human, UniProt Q13263 33-434, V380A); assay: as above
T6 construct: KAP1 (TRIM28), human, RBCC fragment S33-K434; source: E. coli, purified; construct generated by GenScript

[7] = molecular target: T7, FLAG-SMARCAD1, full-length, wild type, recombinant from E. coli (human, UniProt Q9H4L7 1-1026); assay: co-IP; purified full-length SMARCAD1 and KAP1 from E. coli, 7μg of each in 280μL SK binding buffer, 200mM NaCl, 4°C; immunoprecipitated overnight with anti-FLAG M2 affinity gel
T7 construct: SMARCAD1, human, full-length; Cloned in pET28a-SUMO; source: E. coli BL-21 CodonPlus (DE3)-RIL, purified (HisTrap, Heparin, ProSwift SAX-1S)
T7 sequence (looked up): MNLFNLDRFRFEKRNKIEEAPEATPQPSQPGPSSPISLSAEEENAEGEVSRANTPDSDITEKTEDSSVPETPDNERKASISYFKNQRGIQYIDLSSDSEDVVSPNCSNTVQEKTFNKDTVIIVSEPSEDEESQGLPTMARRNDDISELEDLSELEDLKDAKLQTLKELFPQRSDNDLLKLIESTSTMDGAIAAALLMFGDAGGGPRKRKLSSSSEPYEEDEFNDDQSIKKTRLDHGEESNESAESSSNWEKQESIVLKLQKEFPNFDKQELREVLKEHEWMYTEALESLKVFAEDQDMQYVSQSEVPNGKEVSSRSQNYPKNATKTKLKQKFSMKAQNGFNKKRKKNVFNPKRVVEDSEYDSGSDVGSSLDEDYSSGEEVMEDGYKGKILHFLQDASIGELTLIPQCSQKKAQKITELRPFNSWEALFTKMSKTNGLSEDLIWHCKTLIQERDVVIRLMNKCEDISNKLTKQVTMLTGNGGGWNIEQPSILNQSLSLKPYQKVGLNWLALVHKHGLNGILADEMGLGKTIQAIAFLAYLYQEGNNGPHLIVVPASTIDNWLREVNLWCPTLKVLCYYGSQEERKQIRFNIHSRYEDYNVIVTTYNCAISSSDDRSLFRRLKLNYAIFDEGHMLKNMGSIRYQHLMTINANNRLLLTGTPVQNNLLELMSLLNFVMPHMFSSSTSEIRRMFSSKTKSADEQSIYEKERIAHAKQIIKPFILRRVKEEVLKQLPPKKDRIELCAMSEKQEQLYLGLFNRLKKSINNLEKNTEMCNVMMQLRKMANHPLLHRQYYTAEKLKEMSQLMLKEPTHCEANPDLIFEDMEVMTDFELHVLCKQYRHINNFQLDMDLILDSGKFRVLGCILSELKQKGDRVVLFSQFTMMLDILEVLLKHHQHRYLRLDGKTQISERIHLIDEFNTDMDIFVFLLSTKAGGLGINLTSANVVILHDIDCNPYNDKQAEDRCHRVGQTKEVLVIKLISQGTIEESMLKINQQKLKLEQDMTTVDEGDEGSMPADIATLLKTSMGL

T4 sequence (Q13263 33-434 L376A): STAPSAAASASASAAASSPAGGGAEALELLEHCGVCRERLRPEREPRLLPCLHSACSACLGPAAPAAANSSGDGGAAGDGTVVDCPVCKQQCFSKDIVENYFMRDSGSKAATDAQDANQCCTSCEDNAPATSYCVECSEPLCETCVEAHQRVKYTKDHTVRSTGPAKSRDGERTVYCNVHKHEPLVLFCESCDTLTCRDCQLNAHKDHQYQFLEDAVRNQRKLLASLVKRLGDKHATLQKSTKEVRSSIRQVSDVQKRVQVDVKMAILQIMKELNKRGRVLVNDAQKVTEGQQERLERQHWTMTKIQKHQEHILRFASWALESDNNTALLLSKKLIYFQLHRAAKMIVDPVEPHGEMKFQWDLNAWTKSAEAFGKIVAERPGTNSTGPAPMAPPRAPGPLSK
T6 sequence (Q13263 33-434 V380A): as the sequence (Q13263 33-434 L376A) above, with A344L, V348A counted along it
T2 sequence (Q13263 33-434 M335A): as the sequence (Q13263 33-434 L376A) above, with M303A, A344L counted along it
T3 sequence (Q13263 33-434 E343A): as the sequence (Q13263 33-434 L376A) above, with E311A, A344L counted along it
T5 sequence (Q13263 33-434 I379A): as the sequence (Q13263 33-434 L376A) above, with A344L, I347A counted along it

- binding result [1]: binds
B7: FLAG-tagged SMARCAD1 CUE1,2 fragment L195A (domain or fragment, human, UniProt Q9H4L7 95-347, looked up)
chain: SSDSEDVVSPNCSNTVQEKTFNKDTVIIVSEPSEDEESQGLPTMARRNDDISELEDLSELEDLKDAKLQTLKELFPQRSDNDLLKLIESTSTMDGAIAAAALMFGDAGGGPRKRKLSSSSEPYEEDEFNDDQSIKKTRLDHGEESNESAESSSNWEKQESIVLKLQKEFPNFDKQELREVLKEHEWMYTEALESLKVFAEDQDMQYVSQSEVPNGKEVSSRSQNYPKNATKTKLKQKFSMKAQNGFNKKRKKN
notes: SMARCAD1, human, CUE1,2 fragment S95-N347; source: E. coli, purified; construct generated by GenScript

- binding result [1]: binds
B8: FLAG-tagged SMARCAD1 CUE1,2 fragment P170A (domain or fragment, human, UniProt Q9H4L7 95-347, looked up)
chain: B7 chain with P76A, A101L
notes: as for B7

- binding result [1]: binds
B9: FLAG-tagged SMARCAD1 CUE1,2 fragment Q171A (domain or fragment, human, UniProt Q9H4L7 95-347, looked up)
chain: B7 chain with Q77A, A101L
notes: as for B7

- binding result [7]: binds
B10: KAP1, full-length, recombinant from E. coli (HA-KAP1) (natural protein, human, UniProt Q13263 1-835, looked up)
chain: MAASAAAASAAAASAASGSPGPGEGSAGGEKRSTAPSAAASASASAAASSPAGGGAEALELLEHCGVCRERLRPEREPRLLPCLHSACSACLGPAAPAAANSSGDGGAAGDGTVVDCPVCKQQCFSKDIVENYFMRDSGSKAATDAQDANQCCTSCEDNAPATSYCVECSEPLCETCVEAHQRVKYTKDHTVRSTGPAKSRDGERTVYCNVHKHEPLVLFCESCDTLTCRDCQLNAHKDHQYQFLEDAVRNQRKLLASLVKRLGDKHATLQKSTKEVRSSIRQVSDVQKRVQVDVKMAILQIMKELNKRGRVLVNDAQKVTEGQQERLERQHWTMTKIQKHQEHILRFASWALESDNNTALLLSKKLIYFQLHRALKMIVDPVEPHGEMKFQWDLNAWTKSAEAFGKIVAERPGTNSTGPAPMAPPRAPGPLSKQGSGSSQPMEVQEGYGFGSGDDPYSSAEPHVSGVKRSRSGEGEVSGLMRKVPRVSLERLDLDLTADSQPPVFKVFPGSTTEDYNLIVIERGAAAAATGQPGTAPAGTPGAPPLAGMAIVKEEETEAAIGAPPTATEGPETKPVLMALAEGPGAEGPRLASPSGSTSSGLEVVAPEGTSAPGGGPGTLDDSATICRVCQKPGDLVMCNQCEFCFHLDCHLPALQDVPGEEWSCSLCHVLPDLKEEDGSLSLDGADSTGVVAKLSPANQRKCERVLLALFCHEPCRPLHQLATDSTFSLDQPGGTLDLTLIRARLQEKLSPPYSSPQEFAQDVGRMFKQFNKLTEDKADVQSIIGLQRFFETRMNEAFGDTKFSAVLVEPPPMSLPGAGLSSQELSGGPGDGP
notes: KAP1 (TRIM28), human, full-length; also called TRIM28; TIF1β; source: E. coli BL-21 CodonPlus (DE3)-RP, purified (HisTrap, Heparin, Sephacryl S-400 gel filtration)

The remaining lines, values behind:

B1: SMARCAD1 CUE1 fragment (S95-E237), wild type (domain or fragment, human, UniProt Q9H4L7 95-237, looked up)
chain: SSDSEDVVSPNCSNTVQEKTFNKDTVIIVSEPSEDEESQGLPTMARRNDDISELEDLSELEDLKDAKLQTLKELFPQRSDNDLLKLIESTSTMDGAIAAALLMFGDAGGGPRKRKLSSSSEPYEEDEFNDDQSIKKTRLDHGE
notes: SMARCAD1, human, residues S95-E237 spanning only the first CUE domain; also called wild type CUE1 fragment; source: E. coli BL-21 CodonPlus (DE3)-RIL, purified (Ni-NTA, Mono Q if required)
- binding result [1]: binds

B2: FLAG-tagged SMARCAD1 CUE1,2 fragment Δ200-230 (domain or fragment, human, UniProt Q9H4L7 95-347, looked up)
chain: SSDSEDVVSPNCSNTVQEKTFNKDTVIIVSEPSEDEESQGLPTMARRNDDISELEDLSELEDLKDAKLQTLKELFPQRSDNDLLKLIESTSTMDGAIAAALLMFGTRLDHGEESNESAESSSNWEKQESIVLKLQKEFPNFDKQELREVLKEHEWMYTEALESLKVFAEDQDMQYVSQSEVPNGKEVSSRSQNYPKNATKTKLKQKFSMKAQNGFNKKRKKN
notes: SMARCAD1, human, CUE1,2 fragment S95-N347 with residues 200-230 deleted; source: E. coli, purified; construct generated by GenScript
- binding result [1]: binds

B3: FLAG-tagged SMARCAD1 CUE1,2 fragment (S95-N347), wild type (domain or fragment, human, UniProt Q9H4L7 95-347, looked up)
chain: B7 chain with A101L
notes: SMARCAD1, human, residues S95-N347 encompassing both CUE domains; source: E. coli BL-21 CodonPlus (DE3)-RIL, purified (Ni-NTA, Mono Q if required)
- binding result [1]: binds
- binding result [2]: binds
- binding result [3]: binds
- binding result [4]: binds
- binding result [5]: binds
- binding result [6]: binds

B4: FLAG-tagged SMARCAD1 CUE1,2 fragment L196A (domain or fragment, human, UniProt Q9H4L7 95-347, looked up)
chain: B7 chain with A101L, L102A
notes: as for B7
- binding result [1]: binds

B5: FLAG-tagged SMARCAD1 CUE1,2 fragment D188A (domain or fragment, human, UniProt Q9H4L7 95-347, looked up)
chain: B7 chain with D94A, A101L
notes: as for B7
- binding result [1]: binds

B6: FLAG-tagged SMARCAD1 CUE1,2 fragment E167A (domain or fragment, human, UniProt Q9H4L7 95-347, looked up)
chain: B7 chain with E73A, A101L
notes: as for B7
- binding result [1]: binds
